Measured values taken from patent US20170022269A1.

Tests used:
[1] = molecular target: Aβ(20-42) globulomer (human); experiment: dot blot densitometry, antibody 0.2 µg/ml; column Aβ(20-42) globulomer (reference)
Aβ(1-42) fibrils (human) = Aβ(1-42) fibrils (human) (UniProt P05067); experiment: co-pelleting with Aβ(1-42) fibrils, SDS-PAGE, optical density of the heavy chain in pellet / (pellet + supernatant)
Sequence of Aβ(1-42) fibrils (human) (P05067 672-713): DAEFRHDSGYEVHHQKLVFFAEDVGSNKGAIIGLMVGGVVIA

Sequence of Aβ(20-42) globulomer (human) (peptide, as listed by the source): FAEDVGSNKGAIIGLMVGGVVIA

relation between recognition of Aβ(20-42) globulomer and the respective Aβ form [1]: 1 | antibody bound to fibrils [%] (Aβ(1-42) fibrils (human)): 98%
Substance: commercially available antibody 6E10 (Signet, Cat. no. 9320)
